Source: patent US20230119254A1, “SYNERGISTIC AND TARGETING COMPOSITIONS FOR TREATMENT OF ARTERIAL AND VENOUS THROMBOSIS” (AstraZeneca AB, priority 2020, published 2023)

Experiments:
[1] = test system: human platelet-rich plasma (PRP); experiment: ADP-induced human platelet aggregation in platelet-rich plasma; format: cell-based; details: ADP-activated, light transmission, 6 min
Experimental: FIGS. 1A and 1B show the effect of apyrase APT102 used as such and of a fusion protein thereof, APT402, on platelet aggregation in an ex vivo reaction mixture comprising human platelet-rich plasma (PRP) activated with 20 μM ADP. […] X axis is the assay time (6 min duration), Y axis is the light transmission. […] Arrows indicate addition of ADP and apyrases.
(§1) The inhibitory activity on FX activation was assayed using peripheral blood mononuclear cells (PBMC) purified from normal human donors and anesthetized rabbits by standard methods. […] As expected, APT102 had no effect on PBMC pro-coagulant activity.

[2] = test system: peripheral blood mononuclear cells (PBMC) from normal human donors; experiment: LPS-induced Factor X activation in human PBMC; format: cell-based; details: human PBMCs
Experimental: (§2) Peripheral blood mononuclear cells were incubated with LPS (1 mg/ml) to induce tissue factor expression and FX activation measured in the presence of FVII, FX and chromogenic substrate 52765.
as §1

[3] = test system: peripheral blood mononuclear cells (PBMC) from anesthetized rabbits; experiment: LPS-induced Factor X activation in rabbit PBMC; format: cell-based; details: rabbit PBMCs
Experimental: as §2, §1

[4] = test system: thrombin generation in human platelet rich plasma; experiment: Thrombin generation by calibrated automated thrombography (CAT) in ADP-activated human PRP; format: cell-based; details: 20 uM ADP-activated human platelets, equal molar concentrations
Experimental: Shown are thrombograms of nanomolar thrombin that were generated in human platelet rich plasma activated with […].
Thrombin generation in citrated human platelet rich plasma (PRP) was quantified by calibrated automated thrombography (CAT) using the Thrombinoscope system (Synapse), according to methods developed by Hemker et al. Aliquots of PRP were incubated with agents for 15 min at room temperature, and then for 5 min at 37° C. in wells of 96-well plates. Thrombin generation was initiated by addition of 0.5 pM tissue factor and CaCl2 to 16.7 mM and monitored in a microtiter plate fluorometer (Fluoroskan Ascent, Thermo Electron Corp., Vantaa, Finland). Thrombograms (nM thrombin generated vs. time) were generated using the Thrombinoscope software, as were key thrombin generation parameters: lag time to onset of thrombin generation (min), peak thrombin concentration (nM), time to peak thrombin (min), and endogenous thrombin potential (ETP; integrated area under the thrombogram curve).
The effects of APT102, annexin V, APT102+annexin V, and APT402 at equal molar concentrations on thrombin generation from 20 uM ADP-activated human platelets were compared using CAT assays (FIG. 3). […] These features were mimicked by APT402.

[5] = test system: IVC fibrosis (collagen deposition); experiment: Chronic murine electrolytic injury model (EIM) of DVT, fibrosis; format: in vivo; details: mice, 1.0 mg/kg ip bolus daily for 14 days
Source text: In a chronic fibrotic study, mice were randomized and blinded into the following groups (n=5-12/group).
Collagen deposition was stained with Masson's trichrome 14 days post DVT induction.

B1: APT102: soluble apyrase, enhanced form of soluble CD39L3 R67G T69R (SEQ ID NO: 2) (protein)
chain: EVLPPGLKYGIVLDAGSSGTRVYVYQWPAEKENNTGVVSQTFKCSVKGSGISSYGNNPQDVPRAFEECMQKVKGQVPSHLHGSTPIHLGATAGMRLLRLQNETAANEVLESIQSYFKSQPFDFRGAQIISGQEEGVYGWITANYLMGNFLEKNLWHMWVHPHGVETTGALDLGGASTQISFVAGEKMDLNTSDIMQVSLYGYVYTLYTHSFQCYGRNEAEKKFLAMLLQNSPTKNHLTNPCYPRDYSISFTMGHVFDSLCTVDQRPESYNPNDVITFEGTGDPSLCKEKVASIFDFKACHDQETCSFDGVYQPKIKGPFVAFAGFYYTASALNLSGSFSLDTFNSSTWNFCSQNWSQLPLLLPKFDEVYARSYCFSANYIYHLFVNGYKFTEETWPQIHFEKEVGNSSIAWSLGYMLSLTNQIPAESPLIRLPIEPPV
B1 was tested. Which “inhibition of ADP-induced human platelet aggregation” value [1] did it give?
The value was “dose-dependently inhibits”.

What about the “reduction in LPS-induced FX activation” value [2] of the same molecule?
Its value is “no effect”.

What about the “reduction in LPS-induced FX activation” value [3] of the same molecule?
Its value is “no effect”.

And the peak thrombin concentration [4]?
The peak thrombin concentration was “modest inhibitory effect”.

And the “time to peak thrombin” value [4]?
The value was “modest inhibitory effect”.

What about the “deaths, increased bleeding or gross side effects” value [5] of the same molecule?
Its value is “no deaths or increased bleeding or gross side effects”.

And the “reduction of collagen deposition” value ([5]; Masson's trichrome 14 days post DVT induction)?
Its value is 11%.
